According to patent publication US20260008862A1, “Bispecific Anti-BCMA x Anti-CD3 Antibodies and Uses Thereof” (Regeneron Pharmaceuticals, Inc., priority 2018, published 2026):

Legend:
[1] = biological target: T1, surface BCMA on U266 cells (Homo sapiens, UniProt Q02223); test: FACS surface BCMA after overnight incubation, U266; assay type: cell-based; details: range over detecting anti-BCMA antibodies
T1 construct: human cell lines which express endogenous BCMA; endogenous in cells; host or cells: multiple myeloma cell lines U266
Protocol: (§1) Flow cytometric analysis was utilized to determine the impact of overnight incubation of multiple myeloma cell lines with anti-BCMA antibodies on the level of surface BCMA. […] After 18 hours, wells were washed with cold FACS wash (PBS+1% filtered FBS) and resuspended in 667 nM of the same anti-BCMA antibody in cold stain buffer (Miltenyi 130-091-221) for 30 minutes on ice. After incubation, the cells were washed twice with cold FACS wash (PBS+1% filtered FBS) and bound antibody was detected by incubating with the appropriate anti-human secondary antibody (anti-hIgG or anti-HIS) on ice for an additional 30-45 minutes. After incubation, cells were washed, re-suspended in 200 μL cold PBS containing 1% filtered FBS and analyzed by flow cytometry on a BD FACS Canto II. Fold increase in staining was calculated by dividing the MFI of stained cells previously incubated overnight in BCMA abs or DAPT by the MFI of stained cells that were incubated overnight in media only.

[2] = biological target: T2, surface BCMA on H929 cells (Homo sapiens, UniProt Q02223); test: FACS surface BCMA after overnight incubation, NCI-H929; assay type: cell-based; details: range over detecting anti-BCMA antibodies
T2 construct: human cell lines which express endogenous BCMA (e.g., NCI-H929); endogenous in cells; host or cells: multiple myeloma cell lines H929
Protocol: as §1

[3] = biological target: surface BCMA on Molp8 cells (Homo sapiens, UniProt Q02223); test: FACS surface BCMA after overnight incubation, Molp8; assay type: cell-based; details: range over detecting anti-BCMA antibodies
Protocol: as §1

[4] = biological target: surface BCMA on MM1.S cells (Homo sapiens, UniProt Q02223); test: FACS surface BCMA after overnight incubation, MM1S; assay type: cell-based; details: MM.1 S
Protocol: as §1

human BCMA-MFC = biological target: T3, human BCMA-MFC (Homo sapiens, UniProt Q02223); test: SPR (Biacore 4000) binding kinetics to human BCMA-MFC; details: 25° C.
T3 construct: (human BCMA-MFC); made in house
Protocol: (§2) The CM5 Biacore sensor surface was derivatized by amine coupling with a monoclonal mouse anti-human Fc antibody (GE, #BR-11008-39) to capture purified anti-BCMA mAbs and anti-BCMA×anti-CD3 bispecific mAbs. All Biacore binding studies were performed in a buffer composed of 0.01 M HEPES pH 7.4, 0.15M NaCl, 3 mM EDTA, 0.05% v/v Surfactant P20 (HBS-ET running buffer). […] Antigen samples were then injected over the anti-BCMA and anti-BCMA×anti-CD3 bispecific mAbs captured surfaces at a flow rate of 30 μL/minute. Antibody-reagent association was monitored for 5 minutes while dissociation in HBS-ET running buffer was monitored for 10 minutes. All of the binding kinetics experiments were performed at 25° C. Kinetic association (ka) and dissociation (kd) rate constants were determined by fitting the real-time sensorgrams to a 1:1 binding model using Scrubber 2.0c curve fitting software. Binding dissociation equilibrium constants (KD) and dissociative half-lives (t½) were calculated from the kinetic rate constants as: […]

human BCMA-MMH = biological target: T4, human BCMA-MMH (Homo sapiens, UniProt Q02223); test: SPR (Biacore 4000) binding kinetics to human BCMA-MMH; details: 25° C.
T4 construct: (human BCMA-MMH); myc-myc-hexahistidine (C); made in house
Protocol: as §2

mouse BCMA-MFC = test: SPR (Biacore 4000) binding kinetics to mouse BCMA-MFC; details: 25° C.
Protocol: as §2

monkey BCMA-MFC = test: SPR (Biacore 4000) binding kinetics to monkey BCMA-MFC; details: 25° C.
Protocol: as §2

monkey BCMA-MMH = test: SPR (Biacore 4000) binding kinetics to monkey BCMA-MMH; details: 25° C.; 90 nM antigen
Protocol: as §2

Sequence of mouse BCMA-MFC (as listed by the source): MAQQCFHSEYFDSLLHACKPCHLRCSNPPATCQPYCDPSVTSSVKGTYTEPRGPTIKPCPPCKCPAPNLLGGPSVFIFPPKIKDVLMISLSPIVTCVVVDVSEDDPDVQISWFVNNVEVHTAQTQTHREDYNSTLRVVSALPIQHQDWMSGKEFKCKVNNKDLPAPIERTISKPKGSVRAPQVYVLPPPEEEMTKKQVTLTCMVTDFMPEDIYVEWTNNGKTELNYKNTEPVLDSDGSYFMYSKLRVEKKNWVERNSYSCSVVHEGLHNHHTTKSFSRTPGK
Sequence of monkey BCMA-MFC (as listed by the source): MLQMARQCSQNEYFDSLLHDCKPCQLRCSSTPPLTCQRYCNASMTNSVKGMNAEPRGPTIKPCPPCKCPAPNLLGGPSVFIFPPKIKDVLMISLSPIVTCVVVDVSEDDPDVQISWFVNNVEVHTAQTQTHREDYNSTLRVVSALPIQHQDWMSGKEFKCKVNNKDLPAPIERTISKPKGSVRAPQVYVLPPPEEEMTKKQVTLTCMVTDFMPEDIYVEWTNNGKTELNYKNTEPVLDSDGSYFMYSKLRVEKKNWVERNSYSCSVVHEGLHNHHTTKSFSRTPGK
T3 sequence (Q02223 with tags, fused parts or gaps): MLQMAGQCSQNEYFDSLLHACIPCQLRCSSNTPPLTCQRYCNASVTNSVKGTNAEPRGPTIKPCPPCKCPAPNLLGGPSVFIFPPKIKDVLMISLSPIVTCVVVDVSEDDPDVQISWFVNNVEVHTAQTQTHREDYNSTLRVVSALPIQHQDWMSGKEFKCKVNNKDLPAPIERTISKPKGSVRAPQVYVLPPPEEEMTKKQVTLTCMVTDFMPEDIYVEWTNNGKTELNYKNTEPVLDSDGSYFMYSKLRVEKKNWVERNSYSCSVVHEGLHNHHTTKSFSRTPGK
T4 sequence (Q02223 with tags, fused parts or gaps): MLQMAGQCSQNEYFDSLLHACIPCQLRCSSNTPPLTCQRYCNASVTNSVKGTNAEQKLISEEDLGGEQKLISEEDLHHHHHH
Sequence of monkey BCMA-MMH (as listed by the source): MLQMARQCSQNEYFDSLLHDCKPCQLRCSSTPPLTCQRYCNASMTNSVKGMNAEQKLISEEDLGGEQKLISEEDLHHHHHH
T1 sequence (Q02223 whole entry): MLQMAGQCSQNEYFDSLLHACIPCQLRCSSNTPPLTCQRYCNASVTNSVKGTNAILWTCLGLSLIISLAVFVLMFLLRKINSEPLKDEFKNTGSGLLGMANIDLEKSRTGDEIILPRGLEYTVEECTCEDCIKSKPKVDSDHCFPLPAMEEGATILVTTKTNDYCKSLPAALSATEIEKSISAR
Sequence of surface BCMA on MM1.S cells (Q02223 whole entry): as above
Sequence of surface BCMA on Molp8 cells (Q02223 whole entry): as above
T2 sequence (Q02223 whole entry): as above

Molecule	fold increase in MFI of BCMA over cells incubated in media only [1]	fold increase in MFI of BCMA over cells incubated in media only [2]	fold increase in MFI of BCMA over cells incubated in media only [3]	fold increase in MFI of BCMA over cells incubated in media only [4] [fold]	ka (human BCMA-MFC) [M⁻¹ s⁻¹]	kd (human BCMA-MFC) [s⁻¹]	ka (human BCMA-MMH) [M⁻¹ s⁻¹]	kd (human BCMA-MMH) [s⁻¹]	ka (mouse BCMA-MFC) [M⁻¹ s⁻¹]	kd (mouse BCMA-MFC) [s⁻¹]	ka (monkey BCMA-MFC) [M⁻¹ s⁻¹]	kd (monkey BCMA-MFC) [s⁻¹]	90 nM mfBCMA.mmh Bind (RU) (monkey BCMA-MMH)
C[C@H](NC(=O)Cc1cc(F)cc(F)c1)C(=O)N[C@H](C(=O)OC(C)(C)C)c1ccccc1 [DAPT]	5.3-9.0 fold	2.3-4 fold	2.4-8.6 fold	11.9									
mAb16711: anti-BCMA antibody, HCVR/LCVR SEQ ID NOs 2/10 (antibody, V domains shown) VH: QVQLVESGGGVVQPGRSLRLSCAASGFTFSTYGIHWVRQAPGKGLEWVAVILHDGSSNYYAESVKGRFIISRDNSKNTLYLQMNSLRAEDTALYYCTKRYSEAAGPNWFDPWGQGTLVTVSS VL: DIQMTQSPSSVSASVGDRVTITCRASRGISSWLAWYQQKPGKAPKLLIHAASSLQSGVPSRFSGSGSGTDFTLTISSLQPEDFATYYCQQAISFPFTFGPGTKVDIK					1.85e+06	0.00019	2.01e+06	0.00347	1.07e+06	0.0011			
REGN4514: anti-BCMA antibody, HCVR/LCVR SEQ ID NOs 34/42 (antibody, V domains shown) VH: EVQLVESGGGLVQPGRSLRLSCAASGFTFDDYAMHWVRQAPGKGLEWVSGISWNSGNMGYADSVKGRFTISRDNAKNSLFLQMHSLRAEDTAFYYCAKVRLTAFDFWGQGTLVTVSS VL: DIQMTQSPSSLSASVGDRVTITCRTSQSIGNYLNWFQQKPGKAPKLLIYTASSLQNGVPSRFTGSGSGTDFTLTISSLQPEDFVIYYCQQSFSTPYTFGQGTKLEIK					1.07e+06	4.53e-05	1.06e+06	0.00285	397000	0.000269	492000	0.00724	1.1
REGN4515: anti-BCMA antibody, HCVR/LCVR SEQ ID NOs 50/58 (antibody, V domains shown) VH: QVQLVESGGGLVKPGGSLRLSCAASGFTFSDYYISWIRQAPGKGLEWVSYISSSGSSIKYADSVKGRFTISRDNAKNSLYLQMNSLRAEDTAVYYCAREGGNYGMDVWGQGTTVTVSS VL: DIQMTQSPSSVSASVGDRVTITCRASQGINNWLVWYQQKPGKAPKLLIYAATSLQSGVPSRFSGSGSGTDFTLTISSLQPEDFATYYCQQANSFPPTFGQGTKLEIK					1.41e+06	8.95e-05	869000	0.00247	947000	0.00418	2.13e+06	0.00716	1.9
